{
  "source": "a protein production outcome set (Wang et al. 2014)",
  "data": [
    {"test": "label from the status in PepcDB records", "values": [
      {"sequence": "MKAESSNESFIIGQRVHSLNDSRRVGTVKYVGDVEGYSGTWIGVDWDQDGDGKHNGSVNGVFYFNGRSQSSASFVRSQNLSRGITLLQALELRYRTISTKDEEDEMYVLSAGNRRVSIQLLGGDKIQDKLSRFEELTSASLSYLGVSSLGVSSDLGSILPNLKLLDLTGNLISDWEEIGALCEQLPALTTLNLSCNSLSSDIKSLPQLKNIRVLVLNNSGLSWTQVEILRRSLPGIEELHLMGNMISTITSTSSSDDQAFNSLRLLNLDDNCISDWSEVLKLSQLPCLEQLYLNKNKLSRIFQSVNGTESSEKGSDPFPSLSCLLLGANNIGDLASVDALNGFPQLVDIRLSENPISDPVRGGVPRFVLVARLTKVQVLNGSEVRAREKKDSEIRYVRMVMSKLNDKSGEIELLHPRFYELKKLHGIEDERASAENSGPKNIASGLISITLKCVGPSMGEKPHLTKKLPGSITVGKLKILSENFFKLKSIKPRLFLQEEGSPFPTALDDETATLLDVGICDGSTLLVDEES", "protein production": "failed"},
      {"sequence": "MKAGLIMRHDVMSILHAFCMIAENHSFTRAAAQLHISTSALSQNMRQLEDELGVKLLNRTTRRVGLTEAGHAFLASIRPALAHIDEAMEHARQSRDIPGGTLRLTVPRTAATLLLQPNLAGFMRDYPDIRLDIDVNDGFVDLINERFDAGIRFGDAVQLDMNVVPLGDVLRPAIVASPAYLARFGTPLHPQELINHRCLCHRFTRESGLYRWEFVHGAQRLEITPEAALMVNDKALRLSAARDGAGLTYVFEQDVHEDLQDGRLCSVLEEWLPAADRFYLYYPGRAHMAPKLRVFIDYFCHKAILPSQQSHHR", "protein production": "failed"},
      {"sequence": "MKALMVFMTTAENGSFSDAARKLGVSPAAISQSIARLEQELEVRLFNRTTRQLTLTEDGRRFYAQCRGPVNNLDSAINQLKASRDEPAGHLRVSMPNSFGRRFILPIMGEFCERYPKVRVFFGLDDHFSDLIEDGYDVGVRTGMMPDSRMVARNLAQMPLYVVASPEYWDQHGRPSSPEELSGYDCINFQFPTSGRLFKWEFDRKGERIPLEVNGTYTLNDMEAVAELARLGMGVAQLPGHEVVHLIRSGELEPVLTDMVSLERSIYICFPHRDHIAPRTRVFVDFVVEKLADHPDIMADLPGLDLSAKRSALQQSVGVL", "protein production": "failed"},
      {"sequence": "MKANFGYITPVPLNMELIDISLSKTQKRTPTVIHPQYNIVKIRMFYMRKVKHAGNEFASRLGTILTDFPRIEDIHPFYGDLINVLYDRDHYKLALGHVNAAKNGIEKVSKEFVKLLKFADSLYRCKQLKRAALGRMASAAKKLGKTLEYLEEVRMHMSRLPSIDLSGRTLLVCGFPNVGKSSFVRKISRADVEVQPYPFTTKSLYVGHFDYKYLQWQVIDTPGILDQPLENRNTIEMLSITALAHIKAVVLYFIDLSETCGYSVEEQMDLFNTLNPLLSSNMVIVLSKSDVLGLSGMEDKKAIMSFLEGKKYMEMSCEKEENIDAVKAMACDLLLDERFERKINSERLSEYINRITIVRPKELREKAESFICSREVTEIENEQERYLIPEEYRYDIVPEIVDGKNVADFFDPDIEKKLKEVEEEEEGLLPMYCKTYDVLSPEERALKEEVVAGIERRRIINRLREKKRLPDSWKHRSRNSGGDIAVHVRRDSKTQVAQPPRLPSKKKARFDDKHYYDRKPKHLYRGRK", "protein production": "failed"},
      {"sequence": "MKAQYFFWILFLIGFYWMIYLYQDFLMDALIAGLLCVGFFQVKVFLDKRFFNVVSSFLCVLILASVLIVPLYFIVYKSSNIIFEINFEKFSALIKWLKGIITENLSHFPTIHDGASKFLENFSAASITGYLLKISSYVGRYSLKLITDALFILGLLFFFFYYGERFYRYFLGVLPLGMNQSKKIFEEVAGILRIVLLTSLITVILEGVAFGVMIVWFGHDGWSLGILYGLASLVPAVGGALIWIPIAIYELYHGNVNEAIFIALYSILLISVLIDSVIKPILIVFIKKRIFKTTLKINEMLIFFSMIAGISQFGFWGIIVGPTITAFFIALLRLYENYFIQNEQKACE", "protein production": "failed"},
      {"sequence": "MKAYPYIFLLLISSSLAASQEDKLYEAARSALNDNKYSEALIHVKNILKISPEHLASNILIAEILLADGSASAAEASLTKAVSLGANKKQLRLLFAESYIMQGQYNKTLDYLPEQTNDDKLAAKIYVLRGDAHLGLRQLKLSQNDYNTALAFDAKNIDAKLGLAQIAVNYFQFHQAEKLVDEVLSGYIPPIKAWNLKASIQQSLGNNELALNAINQALLIDKNNIQSLIFASTINIELQQFELAEKYADTVLEQVPNEPKAEFIKAMVQVRKNENAGFESAIETVAQVLDHLSEDVLRSNPSYYYLASIILFHQQKHEAARQYIDDYLLIDENNINALTLAATIELVEKKPMQAKTLLSRANFLDPDNPKILSMLGMTYLELRQYEKAHFYLAKVKELKPNLGIADTQLAQSYLATGKPEKAIKHLLTASAAEYDPTVVGLLLVESYIKSGKMNKGISVAKNLAENMPDNANIQHHLGYIYQISGEIEKAKHQFEQALIIEPNHAKSIISLANLDYQKGNADIAIDRLKAALIISANDIDLITALAKFYNRTNNSAASVILLEEPFKLDNQNEELLKNLIVSYVGDKQLMLAIETLNTYLLNQRKTVELYLMLASLQIMNSDVNSAVSAYKSAIKQDGDKGTIYLLIAHAYQRFSKVPEAITAYKKSMAWDGDNDKAIIGLAQLYNAENDTDSAIKLIKSFEVNHQLSAQLVEVLANSYLRINQYKLAEMYYKKRIKLASNDSSVVGLNLIYRATKRTSKAVDLLTTSLNDRPNSLFLNTALAELYIDQSQWLNADKIYQTLVQLYPKQPAILNNASYVALNLSDYPRAEALVKRSLALVDNQPDSLDTLGWVYYHTKEFNKALPLFRKALAINNSNPAVKYHLALTLKALNRDKEAIKLMVDVVNSDYSQKADADVLLKQWLK", "protein production": "failed"},
      {"sequence": "MKDAKSFNDLYKASIYTMLGSIYAPSGGVIAAPTTSLPEVEGGKRNWDYRFAWVRDSSIIAEALLEAGSIVEARRIINFLLSLINFSSKPFYYPLYTIEGTIPPPERELRWLSGYKNSKPVRIGNGASSQIQLDIEGFFISALYKYVKMTNDQVFLKDVFSKVKYIGDWISENWSLKDSGIWEDRGSPQHYTHSKIMMWIALDKIGKLANLIGYADIWAKEREKLRNWIFTNCVKNNYFIRYCGNTDDVDSSLLSAPLYGFIEVSDSTFINTLTKIENDLKTDVFVKRYKTDFMGEAKHPFLLTTVWLARVYMRLGKIDSAIEILNKINKVSRELHLVGEHVDVEKGEFTGNFPQIFVHAQLVIAIKELNDTLEHHHHHH", "protein production": "failed"},
      {"sequence": "MKDFFKDQFFKALEKNTIFSRADVQGNLIFVSDKLCQISGYSKKELIGKKHSIFKHPDVEECYIEELLKKLSYKKPYQVIFKNIDKLGKTFYLETLLIPILDKNNELIEIVAFSHDVSNSFKLNEELALNHAKLRELSINLENTVKNHQQEFIQLGKKFEKKMQIALEKNEKDIKIAYEEILKSSLEQMISDIAHQWRQPLNELGIAMFQMKQNLKDEKGFAEIYSQSKDMIKNMSETIDVFRTLFNKGVEQCVFIKETLNKALEIAFETIEKNHVNINIVSKSDYEVLAYENGLIRVFLNLILNSIEAFKNKKRKIITINFSKFGKNYLKITIKDNAGGIDKENLDKIFQPYFTTKHPSQGIGVGLYISRQIIESFQGKIKVKNGKDGACFEIFLKLKERVE", "protein production": "failed"},
      {"sequence": "MKDISLKDKITQGINDLFYIWKREFRTTFRDQGVLIFFVLVPLVYPLIYSFIYTNEVVREVPAVVVDDSRSSLSREYLRKVDATPDIQIVAYCADMEEAKQMLKDRLAYGIIYIPKDFSSDIAQGKQTQVSIYCDMSGLLYYKSMLLANTAVSLDMNENIKIARSGNTTDRQDEITAYPIEYEDVAMFNPTNGFAAFLIPAVLILIIQQTLLLGIGLSAGTARENNRFKDLVPINRHYNGTLRIVLGKGLSYFMVYALVSVYVLCAVPRMFSLNQIGQPGTLALFILPYLMACIFFAMTASIAIRNRETCMLIFVFTSVPLLFISGISWPGAAIPPFWKYFSYIFPSTFGINGFVRINNMGATLSEIPFEYKALWIQTGFYFLTTCWVYRWQIIKSRKHVIDKYKEMKNKGKEFFS", "protein production": "failed"},
      {"sequence": "MKDLFSTDSQRYQQARPTYPPSLLQSLLQYIPERELAWDCGAGSGQLTHMLASYFDQVVGTDISQTQLSHAEYYDNISYQLQPAENTTFPDHCFDLITVAQAIHWFDFEAFYAEVRRTIKPSGILAVVGYGLIHVDDLEINAKVQHLYHQTLNGFWDAERHYVDELYQTIPFPFDEIEMPAFQIEAQWTLQQLLQYLNTWSAVQHYILEKNLDPVQQLLSKGRDLQDQVSIQFPVLLRVGRCS", "protein production": "failed"},
      {"sequence": "MKDLIIVGAGGFGREVAWLVEDINNNNREWNLLGFIDENEQNHGNELNGYKVLGGFDYLNNKKNIYYVCAIGNAKVRKEIVEKKCSKYNIKPANLIHPSVIMSKKYNKMGEGCIICASNIITVNVTLGDHIIVNLDCTIGHDVVINDYVTIYPSVNVSGNCNIGECVELGTGTQVIQGNNIGDRTIVGAGSVVIRNIEGDKVAVGVPTKVIK", "protein production": "failed"},
      {"sequence": "MKDLSSIVAKFNTQGTITEIKPLGAGLINDTYKVNTQEADAPDYVLQRINHAIFQNVEMLQSNIAAVTGHIRKKLTEAGEADIDRKVLSFLATEEGKTYWFDGESYWRVMVFIPRAKTYETVNPEYSNYAGEAFGNFQAMLADIPETLGETIPDFHNMEFRLKQLRDAVAANAAGRVAEVQYYLDEIEKRADEMCKAERLFREGKLPKRVCHCDTKVNNMMFDEDGKVLCVIDLDTVMPSFIFSDYGDFLRTGANTGDEDDKDLNRVNFNMEIFKAFTKGYLKGAKSFLTPIEIENLPYAAALFPYMQCVRFLADYINGDTYYKIKYPEHNLVRTKAQFKLLQSVEEHTPEMVAFINECLVNGLEHHHHHH", "protein production": "failed"},
      {"sequence": "MKDLTQGSIPKHLISMALPMMIGMLIQTLYFIVDLYFVGKLGSAALAGLSLAGNAMFLIFALTQILNVSTAALISHAVGAKDQQDANLTFNQSMMLSTVVGIIVCIIGYFGAQDYLNLISQDSETVMMGLTYLHWFIPCMALQFIMVSISSALRGTGIVKPTMVIQTLSILLNIILSPILITGWGSGYAMGIAGAGFASSLSVIFAVVLLCYYFITTDKYVSVDFSLWHINVPRIKKLLAIGLPAGGEFFLMFVYMGAIYWLIKPFGAEAQAAFGLGSRVMQALFLPAMAIAFAAPAIAGQNFGAQNYQRVRDTFRWTAIMTCSLMAIILLICLSQAEWMLTHFSDDREVILISVAFLQMICWNFVPAGLVFTCSGMFQALGNTMPALLSTATRLITFILPALWLSKQSDFQIEQLWYVSVATVCLQSSVSFYFLKREFKKRLPNDNLSNECSDELNKNKLIT", "protein production": "failed"},
      {"sequence": "MKDMKMQSSPETMMTRIPTPDPHSTGVREDAMDSVCKPWKLYENPYYCSSQSQQHQHQRKAFIWDLNFIKVFMESELGKAQDEIKELKAELDYERKARRRAELMIKKLAKDVEEERMAREAEEMQNKRLFKELSSEKSEMVRMKRDLEEERQMHRLAEVLREERVQMKLMDARLFLEEKLSELEEANRQGERERNRMMKPKILERACSSPARRRCENPQIKRGINPFPRVMRAIRSKSEKWGSKLECQKVQLKILLRQKTTPRCTPLLSSPPP", "protein production": "failed"},
      {"sequence": "MKDMQTKIVMIGILLSTGIMLRAQDNGGCEDCPAFNAGGKVEVRGVKERIIGDLSQPVAVRVRTLIQQMTLAEKVAQLVSESDSIPRLNLPAYNYWNECLHGVARAGEVTVFPQAINLASTWDTVLVKRVASAISTEARLKYLEIGKGLTYWSPTINMARDPRWGRNEETYGEDPHLTSRLGVAFVKGLQGDHPTYLKTVATIKHFVANNEENNRFSSSSQIPTKQLYEYYFPAYEACVKEANAQSVMTAYNAFNGVPPSGSHWLLDDVLRKEWGFDGFVVSDCGAIGVMNWQHRVVNSLEEAAALGVNSGCDLECGTTYKEKLVQAVEQGLISEAAIDRALTRVLTARFKLGEFDPMELVPYNHYDKKLLAGKKFAELAYEAAVKSVVLLKNDALLPLNKEKIKSVAVVGPFADYNYLGGYSGQPPYSVSLLKGVKELIGKKGKVTYLNGMGTSADSIAQVVKGADIVLVALGSDEKMARENHDMPSIYLPEEQEKFLKKIYQVNPRIVLVFHTGNPLTSEWADTHILAIMQAWYPGQEAGRALANLLFGNENPSGKLPMTIYKTEEQLPDILDFDMWKGRTYRYMKGEPLYGFGHGLSYTSFEFDNIQGNDTLQPDAILQCSVELSNSGQLAGEEVVQVYVSRENTPVYTYPLKKLVAFKKVKLASGEKKKVDFTIAPRELSVWEDGKWRMLSGKYTLFIGSGQPGLAKGITKGFEVKIR", "protein production": "failed"}
    ]}
  ]
}
